Measurements: patent publication US20230287088A1 (BIONTECH, published 2023)

Columns and labels:
[1] = target: T1, Mouse-Fc-tagged SARS-CoV2 S1-RBD (Sino Biologicals) recombinant protein (SARS-CoV-2, UniProt P0DTC2 319-541); test: competition ELISA: blocks S1-RBD-mFc binding to coated ACE-2 ECD
T1 construct: domain: S1-RBD

[2] = target: T1, Mouse-Fc-tagged SARS-CoV2 S1-RBD (Sino …); test: ELISA on coated S1-RBD-mFc

Binder | IC50 [1] | IC90 [1] | EC50 [2]
460 (bispecific antibody, also called LC of P043.A.00020.D06 with a C-terminal fusion of a scFv of anti-S1 antibody; HC of P043.A.00020.D06 as IgG1-LALA-LS) heavy chain: QSVEESGGRLVTPGTPLTLTCTVSGFSLSSYAMNWVRQAPGKGLEWIGIISSSGSTYYASWAKGRFTISKTSTTVDLKITSPTTEDTATYFCARVGAGYAGYGYDNYYGMDPWGPGTLVTVSSASTKGPSVFPLAPSSKSTSGGTAALGCLVKDYFPEPVTVSWNSGALTSGVHTFPAVLQSSGLYSLSSVVTVPSSSLGTQTYICNVNHKPSNTKVDKRVEPKSCDKTHTCPPCPAPEAAGGPSVFLFPPKPKDTLMISRTPEVTCVVVDVSHEDPEVKFNWYVDGVEVHNAKTKPREEQYNSTYRVVSVLTVLHQDWLNGKEYKCKVSNKALPAPIEKTISKAKGQPREPQVYTLPPSREEMTKNQVSLTCLVKGFYPSDIAVEWESNGQPENNYKTTPPVLDSDGSFFLYSKLTVDKSRWQQGNVFSCSVLHEALHSHYTQKSLSLSPGK light chain fused to scFv: AIQMTQSPSSLAASVGDTVTITCKASEDIGYGLNWYQQKLGIAPKLLIYGANTLESGVPSRFSGSGSETDYTLTISSVQAEDAGIYYCQQGYSTPLTFGAGTKVEIKRTVAAPSVFIFPPSDEQLKSGTASVVCLLNNFYPREAKVQWKVDNALQSGNSQESVTEQDSKDSTYSLSSTLTLSKADYEKHKVYACEVTHQGLSSPVTKSFNRGECDVPGGSGGGGSGGGGSGGGGSQMQLVQSGTEVKKPGESLKISCKGSGYGFITYWIGWVRQMPGKCLEWMGIIYPGDSETRYSPSFQGQVTISADKSINTAYLQWSSLKASDTAIYYCAGGSGISTPMDVWGQGTTVTVGGGGSGGGGSGGGGSGGGGSDIQLTQSPDSLAVSLGERATINCKSSQSVLYSSINKNYLAWYQQKPGQPPKLLIYWASTRESGVPDRFSGSGSGTDFTLTISSLQAEDVAVYYCQQYYSTPYTFGCGTKVEIK | 0.0765 µg/mL | 5.69 µg/mL | 0.0153 µg/mL
454 (bispecific antibody, also called LC of P043.A.00023.A08 with a C-terminal fusion of a scFv of anti-S1 antibody; HC of P043.A.00023.A08 as IgG1-LALA-LS) heavy chain: QSVEESGGRLVTPGTPLTLTCTVSGFSLSKYAMSWVRQAPGKGLEWIGIISSGGSTYYASWAKGRFTISKTSSTTVDLKITSPTTEDTATYFCARAGYPGYSPHYFNIWGPGTLVTVSLASTKGPSVFPLAPSSKSTSGGTAALGCLVKDYFPEPVTVSWNSGALTSGVHTFPAVLQSSGLYSLSSVVTVPSSSLGTQTYICNVNHKPSNTKVDKRVEPKSCDKTHTCPPCPAPEAAGGPSVFLFPPKPKDTLMISRTPEVTCVVVDVSHEDPEVKFNWYVDGVEVHNAKTKPREEQYNSTYRVVSVLTVLHQDWLNGKEYKCKVSNKALPAPIEKTISKAKGQPREPQVYTLPPSREEMTKNQVSLTCLVKGFYPSDIAVEWESNGQPENNYKTTPPVLDSDGSFFLYSKLTVDKSRWQQGNVFSCSVLHEALHSHYTQKSLSLSPGK light chain fused to scFv: AIQMTQSPSSLAASVGDTVTITCKASEDIGYELNWYQQKLGIAPKLLIYGANTLESGVPSRFTGSGSETDYTLTISSVQAEDAGIYYCQQGYSTPPTFGAGTKVEIKRTVAAPSVFIFPPSDEQLKSGTASVVCLLNNFYPREAKVQWKVDNALQSGNSQESVTEQDSKDSTYSLSSTLTLSKADYEKHKVYACEVTHQGLSSPVTKSFNRGECDVPGGSGGGGSGGGGSGGGGSQMQLVQSGTEVKKPGESLKISCKGSGYGFITYWIGWVRQMPGKCLEWMGIIYPGDSETRYSPSFQGQVTISADKSINTAYLQWSSLKASDTAIYYCAGGSGISTPMDVWGQGTTVTVGGGGSGGGGSGGGGSGGGGSDIQLTQSPDSLAVSLGERATINCKSSQSVLYSSINKNYLAWYQQKPGQPPKLLIYWASTRESGVPDRFSGSGSGTDFTLTISSLQAEDVAVYYCQQYYSTPYTFGCGTKVEIK | 0.0435 µg/mL | 0.453 µg/mL | 0.0178 µg/mL
461 (bispecific antibody, also called LC of P043.A.00018.C02 with a C-terminal fusion of a scFv of anti-S1 antibody; HC of P043.A.00018.C02 as IgG1-LALA-LS) heavy chain: QSVEESGGRLVTPGTPLTLTCTVSGFSLSSYAMSWVRQAPGKGLEWIGIINSGRSTYYASWAKGRFTISKTSTTVDLKITSPTTEDTATYFCARDATSIGYYRYYGMDPWGPGTLVTVSSASTKGPSVFPLAPSSKSTSGGTAALGCLVKDYFPEPVTVSWNSGALTSGVHTFPAVLQSSGLYSLSSVVTVPSSSLGTQTYICNVNHKPSNTKVDKRVEPKSCDKTHTCPPCPAPEAAGGPSVFLFPPKPKDTLMISRTPEVTCVVVDVSHEDPEVKFNWYVDGVEVHNAKTKPREEQYNSTYRVVSVLTVLHQDWLNGKEYKCKVSNKALPAPIEKTISKAKGQPREPQVYTLPPSREEMTKNQVSLTCLVKGFYPSDIAVEWESNGQPENNYKTTPPVLDSDGSFFLYSKLTVDKSRWQQGNVFSCSVLHEALHSHYTQKSLSLSPGK light chain fused to scFv: AIQMTQSPSSLAASVGDTVTITCKASEDIGYGLNWYQQKLGIAPKLLIYGANTLESGVPSRFSGSGSETDYTLTISSVQAEDAGIYYCQQGYSTPLTFGAGTKVEIKRTVAAPSVFIFPPSDEQLKSGTASVVCLLNNFYPREAKVQWKVDNALQSGNSQESVTEQDSKDSTYSLSSTLTLSKADYEKHKVYACEVTHQGLSSPVTKSFNRGECDVPGGSGGGGSGGGGSGGGGSQMQLVQSGTEVKKPGESLKISCKGSGYGFITYWIGWVRQMPGKCLEWMGIIYPGDSETRYSPSFQGQVTISADKSINTAYLQWSSLKASDTAIYYCAGGSGISTPMDVWGQGTTVTVGGGGSGGGGSGGGGSGGGGSDIQLTQSPDSLAVSLGERATINCKSSQSVLYSSINKNYLAWYQQKPGQPPKLLIYWASTRESGVPDRFSGSGSGTDFTLTISSLQAEDVAVYYCQQYYSTPYTFGCGTKVEIK | 0.0525 µg/mL | 0.913 µg/mL | 0.0128 µg/mL
455 (bispecific antibody, also called LC of P043.A.00017.E07 with a C-terminal fusion of a scFv of anti-S1 antibody; HC of P043.A.00017.E07 as IgG1-LALA-LS) heavy chain: QSVEESGGRLVTPGTPLTLTCTVSGFSLSSYAMSWVRQAPGKGLEWIGIISSSGSTYYASWAKGRFTISKTSTTVDLKITSPTTEDTATYFCARAMYPGYSTGVYNIWGPGTLVTVSLASTKGPSVFPLAPSSKSTSGGTAALGCLVKDYFPEPVTVSWNSGALTSGVHTFPAVLQSSGLYSLSSVVTVPSSSLGTQTYICNVNHKPSNTKVDKRVEPKSCDKTHTCPPCPAPEAAGGPSVFLFPPKPKDTLMISRTPEVTCVVVDVSHEDPEVKFNWYVDGVEVHNAKTKPREEQYNSTYRVVSVLTVLHQDWLNGKEYKCKVSNKALPAPIEKTISKAKGQPREPQVYTLPPSREEMTKNQVSLTCLVKGFYPSDIAVEWESNGQPENNYKTTPPVLDSDGSFFLYSKLTVDKSRWQQGNVFSCSVLHEALHSHYTQKSLSLSPGK light chain fused to scFv: AIQMTQSPSSLAASVGDTVTITCKASEDIGYELNWYQQKLGIAPKLLIYGANTLESGVPSRFSGSGSETDYTLTISSVQAEDAGIYYCQQGYNTPNTFGAGTKVEIKRTVAAPSVFIFPPSDEQLKSGTASVVCLLNNFYPREAKVQWKVDNALQSGNSQESVTEQDSKDSTYSLSSTLTLSKADYEKHKVYACEVTHQGLSSPVTKSFNRGECDVPGGSGGGGSGGGGSGGGGSQMQLVQSGTEVKKPGESLKISCKGSGYGFITYWIGWVRQMPGKCLEWMGIIYPGDSETRYSPSFQGQVTISADKSINTAYLQWSSLKASDTAIYYCAGGSGISTPMDVWGQGTTVTVGGGGSGGGGSGGGGSGGGGSDIQLTQSPDSLAVSLGERATINCKSSQSVLYSSINKNYLAWYQQKPGQPPKLLIYWASTRESGVPDRFSGSGSGTDFTLTISSLQAEDVAVYYCQQYYSTPYTFGCGTKVEIK | 0.0481 µg/mL | 0.868 µg/mL | 0.0116 µg/mL
